Data as given in patent US12667614B2, “Bacterial microcompartment virus-like particles” (National University of Singapore, priority 2020, dated 2026).

Columns and labels:
[1] = substrate: COc1ccccc1O; experiment: Steady-state kinetics of free APEX2 (guaiacol oxidation); assay type: biochemical, pea; conditions: other: free APEX2 10 nM, guaiacol 0.20 to 2.0 mM, H2O2 1 mM, TBS-50/350 pH 8.0, mean with standard error, triplicates, 30.0 °C
Protocol: (§1) For APEX2, all reagents were made to the appropriate working concentrations using TBS-50/350 pH 8.0. Working solutions of guaiacol and H2O2, both at 10 mM, were prepared on the day of assay. The guaiacol solution was shaken vigorously at 30° C. to ensure complete dissolution before equilibration back to room temperature. The assay concentration for APEX2 was 10 nM, H2O2 1 mM and that for guaiacol ranged from 0.20 to 2.0 mM. Total reaction volume was 200 μL. Reactions were monitored by the absorbance of tetraguaiacol formed at 470 nm using a BioTek Synergy™ HT microplate reader. […] This time point was taken for initial rate, V0, measurement. Kinetic constants were obtained using non-linear least square Michaelis-Menten fitting in GraphPad Prism software.
To probe the capacity of the Cso-BMC for encasing enzymes of considerably different molecular sizes, an evolved pea cytosolic ascorbate peroxidase (APEX2), a 27.0 kDa monomer [Lam et al., Nature Methods 12(1): 51-54 (2015)], and E. coli beta-galactosidase (LacZ), a 466.0 kDa homotetramer, were chosen for encapsulation [Golan, et al., Biochimica et Biophysica Acta (BBA)—Bioenergetics, 1293(2): 238-242; Lam et al., Nature Methods 12(1): 51-54 (2015)]. […] Enzymes were also N-terminally tagged with the hexahistidine (Hiss) tag to facilitate downstream removal of unencapsulated enzymes that might co-purify with shells (Nichols, Kennedy, & Tullman-Ercek, 2019). Cso-PSIIH shells co-expressed with enzymes were constructed and purified. SDS-PAGE analysis and Western blotting confirmed the presence of the target enzymes in shell samples (FIG. 18A-B) and the average copy numbers of enzymes per shell were estimated by Coomassie blue densitometry (Table 8) [Hagen, A., et al., Nature Communications 9: 2881 (2018); Nichols et al., Methods in Enzymology, 617, 155-186 (2019)].
Encapsulation of an enzyme into a protein shell is known to alter the enzyme's catalytic properties in some cases. […]

[2] = substrate: COc1ccccc1O; experiment: Steady-state kinetics of Cso-BMC encapsulated APEX2 (guaiacol oxidation); assay type: biochemical, pea; conditions: other: encapsulated APEX2 10 nM, guaiacol 0.20 to 2.0 mM, H2O2 1 mM, TBS-50/350 pH 8.0, mean with standard error, triplicates, 30.0 °C
Protocol: as §1
To probe the capacity of the Cso-BMC for encasing enzymes of considerably different molecular sizes, an evolved pea cytosolic ascorbate peroxidase (APEX2), a 27.0 kDa monomer [Lam et al., Nature Methods 12(1): 51-54 (2015)], and E. coli beta-galactosidase (LacZ), a 466.0 kDa homotetramer, were chosen for encapsulation [Golan, et al., Biochimica et Biophysica Acta (BBA)—Bioenergetics, 1293(2): 238-242; Lam et al., Nature Methods 12(1): 51-54 (2015)]. […]

B1: Free APEX2 (evolved pea cytosolic ascorbate peroxidase), N-terminal His6, fused to S2CP(30); APEX2-S2CP(30), SEQ ID NO: 110 (Glycine max; A134P/E112K/K14D/W41F) (protein)
chain: MGSSHHHHHHSSGMGKSYPTVSADYQDAVEKAKKKLRGFIAEKRCAPLMLRLAFHSAGTFDKGTKTGGPFGTIKHPAELAHSANNGLDIAVRLLEPLKAEFPILSYADFYQLAGVVAVEVTGGPKVPFHPGREDKPEPPPEGRLPDPTKGSDHLRDVFGKAMGLTDQDIVALSGGHTIGAAHKERSGFEGPWTSNPLIFDNSYFTELLSGEKEGLLQLPSDKALLSDPVFRPLVDKYAADEDAFFADYAEAHQKLSELGFADAGSSKPEKPGSKITGSSGNDTQGSLITYSGGARG
- Km [1]: 580 ± 70 µM
- kcat [1]: 460 ± 20 s⁻¹
- kcat/Km [1]: 7.93 ± 1.02 × 10^5 (s^−1 · M^−1)

B2: APEX2 + shell: APEX2 (evolved pea cytosolic ascorbate peroxidase), N-terminal His6, fused to S2CP(30), SEQ ID NO: 110, encapsulated in Cso-BMC (Cso-PSIIH) … (protein)
chain: MGSSHHHHHHSSGMGKSYPTVSADYQDAVEKAKKKLRGFIAEKRCAPLMLRLAFHSAGTFDKGTKTGGPFGTIKHPAELAHSANNGLDIAVRLLEPLKAEFPILSYADFYQLAGVVAVEVTGGPKVPFHPGREDKPEPPPEGRLPDPTKGSDHLRDVFGKAMGLTDQDIVALSGGHTIGAAHKERSGFEGPWTSNPLIFDNSYFTELLSGEKEGLLQLPSDKALLSDPVFRPLVDKYAADEDAFFADYAEAHQKLSELGFADAGSSKPEKPGSKITGSSGNDTQGSLITYSGGARG
- Km [2]: 790 ± 120 µM
